The target in assay [1] is T1, human TNFα in complex with compound (2) (human, UniProt P01375 77-233).
T1 construct: also called human TNFα +compound (2)
The assay is described as follows: SPR BIAcore T200; IgG captured on anti-mouse Fc; TNFα 50 nM + 2 µM compound injected. On the technique in general: Surface plasmon resonance follows binding to a sensor surface in real time, without labels.

Assay [2] deals with T2, human TNFα in complex with compound (1) (human, UniProt P01375 77-233).
T2 construct: also called human TNFα +compound (1); TNFα-compound (1) complex
T2 sequence (P01375 77-233 limits assumed, one chain of several): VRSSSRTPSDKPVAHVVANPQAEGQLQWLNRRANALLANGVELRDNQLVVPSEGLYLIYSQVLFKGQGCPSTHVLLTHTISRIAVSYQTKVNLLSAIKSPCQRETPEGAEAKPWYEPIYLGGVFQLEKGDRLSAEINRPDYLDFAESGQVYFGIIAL
The description is as above.

Assay [3] has as its target T3, human TNFα without compound (apo) (human, UniProt P01375 77-233).
T3 construct: In-house human TNFα; No compound, DMSO only; also called apo human TNFα; hTNF
Put plainly: SPR BIAcore T200; IgG captured on anti-mouse Fc; apo TNFα 50 nM injected.

Assay [4] concerns the target T1, human TNFα in complex with compound (2). Put plainly: SPR BIAcore T200; IgG captured on anti-mouse Fc.
Assay [5] concerns the target T2, human TNFα in complex with compound (1). The assay is described as follows: SPR BIAcore T200; IgG captured on anti-mouse Fc.
Assay [6] has the same target. The assay is described as follows: size exclusion chromatography (HPLC), molar excess of Fab. In general terms: In gel filtration, larger molecules generally elute earlier.

We go through two molecules from US20180172701A1 (published 2018).

T1 sequence (P01375 77-233 limits assumed, one chain of several): as above
T3 sequence (P01375 77-233 limits assumed): as the sequence (P01375 77-233 limits assumed, one chain of several) above

B1: CA185_01979 mouse IgG1 (antibody, V domains shown)
VH: EVHLVESGPGLVKPSQSLSLTCSVTGYSITNSYWDWIRKFPGNKMEWMGYINYSGSTGYNPSLKSRISISRDTSNNQFFLQLNSITTEDTATYYCARGTYGYNAYHFDYWGRGVMVTVSS
VL: DIQMTQSPASLSASLEEIVTITCQASQDIGNWLSWYQQKPGKSPHLLIYGTTSLADGVPSRFSGSRSGTQYSLKISGLQVADIGIYVCLQAYSTPFTFGSGTKLEIKR
notes: also called CA185_01979.0; VR0001842
What is called Kd is the free concentration of one partner at which half of the binding sites on the other are occupied at equilibrium, for simple one-to-one binding. The koff is a measure of how fast the partners let go of each other. The kon is a measure of how fast the partners come together. Take B1: the Kd in assay [1] was found to be 0.058 nM; in assay [2], 0.034 nM; in assay [3], 6.7 nM. In addition, the koff stood at 3.3e-05 s⁻¹ in assay [1], 1.6e-05 s⁻¹ in assay [2] and 0.00071 s⁻¹ in assay [3]. Also, the kon in assay [1] worked out at 570000 M⁻¹ s⁻¹; in assay [2], 470000 M⁻¹ s⁻¹; in assay [3] it was 110000 M⁻¹ s⁻¹. In addition, the “log selective binding for compound-distorted against apo human TNFα” value in assay [4] and in assay [5] was greater than 2 log each time.

B2: CA185_01979 mFab (no hinge) (Fab, V domains shown)
VH: EVHLVESGPGLVKPSQSLSLTCSVTGYSITNSYWDWIRKFPGNKMEWMGYINYSGSTGYNPSLKSRISISRDTSNNQFFLQLNSITTEDTATYYCARGTYGYNAYHFDYWGRGVMVTVSS
VL: DIQMTQSPASLSASLEEIVTITCQASQDIGNWLSWYQQKPGKSPHLLIYGTTSLADGVPSRFSGSRSGTQYSLKISGLQVADIGIYVCLQAYSTPFTFGSGTKLEIKR
notes: also called CA185_01979 Fab
As for B2, in assay [6], the “stoichiometry (Fab : TNFα trimer)” value stood at 1 Fab per TNFα trimer.
